Source: paper PMC3714108
Read-outs that look alike come from different tables or passages of the source.

T1: CcrA (Staphylococcus aureus 923 (USA300, …, UniProt Q84BN8 1-449))
T1 sequence: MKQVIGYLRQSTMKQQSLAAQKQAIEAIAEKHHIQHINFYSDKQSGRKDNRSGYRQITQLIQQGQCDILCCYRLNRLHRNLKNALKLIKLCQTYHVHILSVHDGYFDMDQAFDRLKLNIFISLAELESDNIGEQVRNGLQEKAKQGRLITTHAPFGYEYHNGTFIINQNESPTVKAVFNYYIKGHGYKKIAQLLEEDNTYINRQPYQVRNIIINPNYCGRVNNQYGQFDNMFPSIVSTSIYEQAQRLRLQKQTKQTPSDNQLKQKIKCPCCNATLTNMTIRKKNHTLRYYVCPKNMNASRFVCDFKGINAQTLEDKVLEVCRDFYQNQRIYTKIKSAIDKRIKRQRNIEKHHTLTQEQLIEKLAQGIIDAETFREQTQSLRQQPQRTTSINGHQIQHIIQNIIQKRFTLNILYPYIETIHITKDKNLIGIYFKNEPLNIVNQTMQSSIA

T2: CcrB (Staphylococcus aureus 923 (USA300, …, UniProt Q9XB94 1-542))
T2 sequence: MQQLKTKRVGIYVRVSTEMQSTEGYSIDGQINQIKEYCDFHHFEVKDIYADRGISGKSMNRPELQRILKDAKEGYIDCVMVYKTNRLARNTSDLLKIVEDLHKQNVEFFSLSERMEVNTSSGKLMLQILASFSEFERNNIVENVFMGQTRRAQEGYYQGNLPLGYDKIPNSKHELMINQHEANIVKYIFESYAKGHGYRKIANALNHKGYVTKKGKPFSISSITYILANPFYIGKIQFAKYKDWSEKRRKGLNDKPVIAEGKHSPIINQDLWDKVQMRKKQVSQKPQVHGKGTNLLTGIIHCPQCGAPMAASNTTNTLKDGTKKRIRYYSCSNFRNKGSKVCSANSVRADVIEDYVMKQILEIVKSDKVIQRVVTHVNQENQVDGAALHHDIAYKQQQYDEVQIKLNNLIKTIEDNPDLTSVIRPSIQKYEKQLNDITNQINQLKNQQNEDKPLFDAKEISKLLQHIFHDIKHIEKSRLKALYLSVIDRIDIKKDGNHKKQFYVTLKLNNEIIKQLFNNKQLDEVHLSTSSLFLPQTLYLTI


Key:
Assay in all cases: EMSA
CcrA [1] = biological target: T1, CcrA
CcrB [2] = biological target: T2, CcrB
CcrA [3] = biological target: T1, CcrA; remark: listed apart in the source
CcrA [4] = biological target: T1, CcrA; remark: listed apart in the source
CcrB [5] = biological target: T2, CcrB; remark: listed apart in the source
CcrA [6] = biological target: T1, CcrA; remark: listed apart in the source

Binder	binding result (CcrA [1])	Kd (CcrB [2]) [nM]	binding result (CcrA [3])	also measured
attL58 (dsDNA) DNA 1: TACAGAGCATTTAAGATTATGCGAGGAGAAGCTTATCATAAATGATGCGGTTTTTTCA DNA 2: TGAAAAAACCGCATCATTTATGATAAGCTTCTCCTCGCATAATCTTAAATGCTCTGTA	binds	~14.1	–	–
attR72 (dsDNA) DNA 1: TTAATTTTTCAAAAACCGCATCATTAACTGATAAGCAGAGGCGTATCATAAGTAAAACTAAAAAATTCTGTA DNA 2: TACAGAATTTTTTAGTTTTACTTATGATACGCCTCTGCTTATCAGTTAATGATGCGGTTTTTGAAAAATTAA	–	~14.1	no binding	–
attB ns half site 62 (dsDNA) DNA 1: TACAGAGCATTTAAGATTATGCGAGGAGATGGCTGAGAACACCCCTTGTGAGGTACTTCATG DNA 2: CATGAAGTACCTCACAAGGGGTGTTCTCAGCCATCTCCTCGCATAATCTTAAATGCTCTGTA	–	–	–	binding result (CcrA [4]): binds
SCC half site 36 (dsDNA) DNA 1: ATTTTTCAAAAACCGCATCATTAACTGATAAGCAGA DNA 2: TCTGCTTATCAGTTAATGATGCGGTTTTTGAAAAAT	–	–	–	binding result (CcrB [5]): binds; binding result (CcrA [6]): no binding
attB62 (dsDNA) DNA 1: TACAGAGCATTTAAGATTATGCGAGGAGAGGCGTATCATAAGTAAAACTAAAAAATTCTGTA DNA 2: TACAGAATTTTTTAGTTTTACTTATGATACGCCTCTCCTCGCATAATCTTAAATGCTCTGTA	binds	~14.1	–	–
attSCC68 (dsDNA) DNA 1: TTATTTTTTCAAAAACCGCATCATTAACTGATAAGCAGAAGCTTATCATAAATGATGCGGTTTTTTCA DNA 2: TGAAAAAACCGCATCATTTATGATAAGCTTCTGCTTATCAGTTAATGATGCGGTTTTTGAAAAAATAA	–	~14.1	no binding	–
